Measured values published in paper PMC3580866 (Biochemistry, 2013).
Positions count from the first letter of the chain named. Numbers in names are those of the source. Values belong to the binder of their own block, whether it stands above or below them.

What was measured:
SEC = target: the molecule itself; test: SEC
[1] = target: full length human SLBP, unphosphorylated, untagged, co-expressed with hSLIP1 in E. coli (human, UniProt Q14493 1-270); test: AUC
AUC = target: the molecule itself; test: AUC

B1: MIF4Gdb from Danio rerio (zebrafish orthologue of SLIP1) (natural protein, Danio rerio (zebrafish))
chain: ENSSKEDYKIQSFDLETQKLLKTALKDPGSVDLEKVSSVIVDQSLKDQVFSREAGRICYTIVQAEAKQTNGSVFRRNLLNRLQQEFKAREETRKRSTQEWVCLVSFICNIFDYLKVNNMPMVALVHPVYDCLFRLAQSDALKNEEEVDCLVLQLHRIGDQLEKMNVQLMDELFNLLRDGFLLQEDLSSMGRLLLLEILEFRAGGWKLSDTAQKYYYSEVTD
stoichiometry N (SEC): 2

Kd [1]: < 0.9 nM
B2: human SLIP1, wild type, (His)6-tagged, co-expressed with hSLBP from pRSF-Duet (natural protein, UniProt A9UHW6 1-222, looked up)
chain: MGEPSREEYKIQSFDAETQQLLKTALKDPGAVDLEKVANVIVDHSLQDCVFSKEAGRMCYAIIQAESKQAGQSVFRRGLLNRLQQEYQAREQLRARSLQGWVCYVTFICNIFDYLRVNNMPMMALVNPVYDCLFRLAQPDSLSKEEEVDCLVLQLHRVGEQLEKMNGQRMDELFVLIRDGFLLPTGLSSLAQLLLLEIIEFRAAGWKTTPAAHKYYYSEVSD

B3: R202A human SLIP1, (His)6-tagged, expressed alone from pET28a (natural protein, UniProt A9UHW6 1-222, looked up)
chain: B2 chain with R202A
stoichiometry N (AUC): 2
